Assay results published in patent US20200155648A1 (CHILDREN S MEDICAL CENTER, published 2020).

Biological target: T1, rhVEGFR1-Fc (R&D Systems, Minneapolis, Minn.) (human, UniProt P17948-2 27-687, limits assumed)
T1 construct: It was captured on plates by an anti-Fc antibody; also called Flt-1; not shown: Fc part of the bought fusion
Assay: cell-free plate assay: rhVEGFR1-Fc captured by anti-Fc, VEGF165 titrated, Kd from the double reciprocal plot; heparin level not given
Protocol: Plates were washed five times with wash buffer (0.05% Tween-20 in PBS, pH 7.2-7.4) the next morning and blocked with blocking buffer (2% bovine serum albumin and 0.05% Tween-20 in PBS) for 1 hour at 37° C. […] Substrate reaction was stopped with 2N sulfuric acid and the signal was visualized with a FLUOstar Omega microplate reader (BMG Labtech, Cary, N.C.) at 450 nm.
All other outcomes were analyzed with analysis of variance.

T1 sequence (P17948 other isoform, or with tags, fused parts or gaps limits assumed): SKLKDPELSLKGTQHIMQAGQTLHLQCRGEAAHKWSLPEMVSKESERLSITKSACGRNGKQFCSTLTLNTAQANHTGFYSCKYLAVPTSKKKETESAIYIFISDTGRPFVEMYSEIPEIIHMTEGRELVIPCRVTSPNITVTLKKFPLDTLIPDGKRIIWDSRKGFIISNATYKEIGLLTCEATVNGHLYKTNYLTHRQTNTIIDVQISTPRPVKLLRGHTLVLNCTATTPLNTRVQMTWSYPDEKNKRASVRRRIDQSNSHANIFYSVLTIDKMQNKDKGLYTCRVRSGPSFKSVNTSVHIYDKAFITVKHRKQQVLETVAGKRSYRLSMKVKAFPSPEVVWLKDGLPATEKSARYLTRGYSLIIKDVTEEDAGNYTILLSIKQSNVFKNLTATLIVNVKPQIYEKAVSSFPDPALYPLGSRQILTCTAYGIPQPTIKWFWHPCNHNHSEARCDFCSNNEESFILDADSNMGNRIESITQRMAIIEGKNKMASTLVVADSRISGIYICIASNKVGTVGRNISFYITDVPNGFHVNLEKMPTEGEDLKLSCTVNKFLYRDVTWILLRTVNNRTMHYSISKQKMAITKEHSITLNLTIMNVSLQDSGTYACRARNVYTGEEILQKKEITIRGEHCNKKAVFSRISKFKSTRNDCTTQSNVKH

Kd: 8.14 ng/mL
B1: rhVEGF-165 (Shire, Lexington, Mass.) (ligand)
chain: APMAEGGGQNHHEVVKFMDVYQRSYCHPIETLVDIFQEYPDEIEYIFKPSCVPLMRCGGCCNDEGLECVPTEESNITMQIMRIKPHQGQHIGEMSFLQHNKCECRPKKDRARQENPCGPCSERRKHLFVQDPQTCKCSCKNTDSRCKARQLELNERTCRCDKPRR
